Measured values as given in the supplement of paper PMC7877785.
± gives the uncertainty stated by the source.

Test: self-splicing fitness, log relative to wild type (ln ratio); higher = more splicing; Tetrahymena group I intron in knt gene, E. coli kanamycin selection, DiMSum; sequences stand for … in CUCUCU…GGAGGGAAAAGUUAUCAGGCAUGCACCUGGUAGCUAGUCUUUAAACCAAUAGAUUGCAUCGGUUUAAAAGGCAAGACCGUCAAAUUGCGGGAAAGGGGUCAACAGCCGUUCAGUACCAAGUCUCAGGGGAAACUUUGAGAUGGCCUUGCAAAGGGUAUGGUAAUAAGCUGACGGACAUGGUCCUAACCACGCAGCCAAGUCCUAAGUCAACAGAUCUUCUGUUGAUAUGGAUGCAGUUCACAGACUAAAUGUCGGUCGGGGAAGAUGUAUUCUUCUCAUAAGAUAUAGUCGGACCUCUCCUUAAUGGGAGCUAGCGGAUGAAGUGAUGCAACACUGGAGCCGCUGGGAACUAAUUUGUAUGCGAAAGUAUAUUGAUUAGUUUUGGAGUACUCGUGGUCG
How it was run: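 The eight P1ex-region nucleotides of an intron in the knt kanamycin-resistance gene on pET-22b(+) were all randomised and the library put into E. coli BL21(DE3). Six replicate transformations were grown overnight at 37°C or 30°C on LB agar with or without 25 μg/mL kanamycin, together with 100 μg/mL carbenicillin, 50 μM IPTG and 0.2% rhamnose. Colonies were pooled and amplicon-sequenced on an Illumina HiSeq 2500. Fitness from DiMSum is the error-weighted combination of wild-type-normalised replicate fold changes, kanamycin over none.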

## AGACAGCAAUAUUACGCCUC
30 °C
  self-splicing fitness (ln): -4.48 ± 0.36
37 °C
  self-splicing fitness (ln): -2.08 ± 0.21

## AGACAGCAAUAUUACGCUCG
30 °C
  self-splicing fitness (ln): -0.153 ± 0.076
37 °C
  self-splicing fitness (ln): 0.136 ± 0.089

## AGACAGCAAUAUUACGGAGA
30 °C
  self-splicing fitness (ln): -3.65 ± 0.18
37 °C
  self-splicing fitness (ln): -2.55 ± 0.29

## AGACAGCAAUAUUACGGAUC
30 °C
  self-splicing fitness (ln): -3.16 ± 0.2
37 °C
  self-splicing fitness (ln): -0.56 ± 0.17

## AGACAGCAAUAUUACGGCCU
30 °C
  self-splicing fitness (ln): -1.2 ± 0.085
37 °C
  self-splicing fitness (ln): -0.234 ± 0.09

## AGACAGCAAUAUUACGGGCC
30 °C
  self-splicing fitness (ln): -1.45 ± 0.1
37 °C
  self-splicing fitness (ln): -1.21 ± 0.11

## AGACAGCAAUAUUACGGUAG
30 °C
  self-splicing fitness (ln): -3.97 ± 0.22
37 °C
  self-splicing fitness (ln): -0.604 ± 0.092

## AGACAGCAAUAUUACGGUGC
30 °C
  self-splicing fitness (ln): -2.82 ± 0.18
37 °C
  self-splicing fitness (ln): -1.89 ± 0.18

## AGACAGCAAUAUUACGUACU
30 °C
  self-splicing fitness (ln): -0.834 ± 0.062
37 °C
  self-splicing fitness (ln): -0.36 ± 0.086

## AGACAGCAAUAUUACGUAGC
30 °C
  self-splicing fitness (ln): -2.07 ± 0.19
37 °C
  self-splicing fitness (ln): -2.14 ± 0.23

## AGACAGCAAUAUUACGUAUC
30 °C
  self-splicing fitness (ln): -3.63 ± 0.16
37 °C
  self-splicing fitness (ln): -1.52 ± 0.15

## AGACAGCAAUAUUACGUCAC
30 °C
  self-splicing fitness (ln): -3 ± 0.23
37 °C
  self-splicing fitness (ln): -3.41 ± 0.19

## AGACAGCAAUAUUACGUGAA
30 °C
  self-splicing fitness (ln): -2.03 ± 0.14
37 °C
  self-splicing fitness (ln): -0.982 ± 0.15

## AGACAGCAAUAUUACGUGGA
30 °C
  self-splicing fitness (ln): -3.96 ± 0.24
37 °C
  self-splicing fitness (ln): -2.37 ± 0.2

## AGACAGCAAUAUUACGUGGU
30 °C
  self-splicing fitness (ln): -3.66 ± 0.14
37 °C
  self-splicing fitness (ln): -2.13 ± 0.12

## AGACAGCAAUAUUACGUUGG
30 °C
  self-splicing fitness (ln): -1.95 ± 0.094
37 °C
  self-splicing fitness (ln): -1.99 ± 0.14

## AGACAGCAAUAUUACGUUUC
30 °C
  self-splicing fitness (ln): -4.68 ± 0.36
37 °C
  self-splicing fitness (ln): -3.7 ± 0.42

## AGAGAGCAAUAUUACGAAAG
30 °C
  self-splicing fitness (ln): -4.41 ± 0.27
37 °C
  self-splicing fitness (ln): -2.42 ± 0.22

## AGAGAGCAAUAUUACGACAC
37 °C
  self-splicing fitness (ln): -1.4 ± 0.26

## AGAGAGCAAUAUUACGAUAA
37 °C
  self-splicing fitness (ln): -2.71 ± 0.28

## AGAGAGCAAUAUUACGCAAC
37 °C
  self-splicing fitness (ln): -1.44 ± 0.2

## AGAGAGCAAUAUUACGCCAA
30 °C
  self-splicing fitness (ln): -2.71 ± 0.2
37 °C
  self-splicing fitness (ln): -3.06 ± 0.43

## AGAGAGCAAUAUUACGCCAG
30 °C
  self-splicing fitness (ln): -3.51 ± 0.35
37 °C
  self-splicing fitness (ln): -2.94 ± 0.38

## AGAGAGCAAUAUUACGCGUG
30 °C
  self-splicing fitness (ln): -3.83 ± 0.36
37 °C
  self-splicing fitness (ln): -1.44 ± 0.18

## AGAGAGCAAUAUUACGGACG
30 °C
  self-splicing fitness (ln): -2.64 ± 0.3
37 °C
  self-splicing fitness (ln): -1.61 ± 0.44

## AGAGAGCAAUAUUACGGGGA
30 °C
  self-splicing fitness (ln): -2.46 ± 0.25
37 °C
  self-splicing fitness (ln): -1.84 ± 0.28

## AGAGAGCAAUAUUACGUAAA
30 °C
  self-splicing fitness (ln): -3.76 ± 0.31
37 °C
  self-splicing fitness (ln): -3.12 ± 0.31

## AGAGAGCAAUAUUACGUCAC
37 °C
  self-splicing fitness (ln): -0.851 ± 0.42

## AGAGAGCAAUAUUACGUCUC
30 °C
  self-splicing fitness (ln): -2.95 ± 0.43
37 °C
  self-splicing fitness (ln): -3.37 ± 0.47

## AGAGAGCAAUAUUACGUGAC
37 °C
  self-splicing fitness (ln): -1.43 ± 0.42

## AGAUAGCAAUAUUACGACAU
30 °C
  self-splicing fitness (ln): -0.0342 ± 0.013
37 °C
  self-splicing fitness (ln): 0.0833 ± 0.033

## AGAUAGCAAUAUUACGACGU
30 °C
  self-splicing fitness (ln): 0.446 ± 0.097
37 °C
  self-splicing fitness (ln): 0.203 ± 0.098

## AGAUAGCAAUAUUACGAGCG
30 °C
  self-splicing fitness (ln): -0.464 ± 0.12
37 °C
  self-splicing fitness (ln): -1.08 ± 0.15

## AGAUAGCAAUAUUACGCAUA
30 °C
  self-splicing fitness (ln): -2.23 ± 0.16
37 °C
  self-splicing fitness (ln): -0.55 ± 0.18

## AGAUAGCAAUAUUACGGCAG
30 °C
  self-splicing fitness (ln): -0.945 ± 0.12
37 °C
  self-splicing fitness (ln): -0.735 ± 0.14

## AGAUAGCAAUAUUACGGGGC
30 °C
  self-splicing fitness (ln): -2.65 ± 0.2
37 °C
  self-splicing fitness (ln): -3.29 ± 0.37

## AGAUAGCAAUAUUACGGUUG
30 °C
  self-splicing fitness (ln): -3.03 ± 0.17
37 °C
  self-splicing fitness (ln): -2.57 ± 0.29

## AGAUAGCAAUAUUACGUAGG
30 °C
  self-splicing fitness (ln): -3.49 ± 0.17
37 °C
  self-splicing fitness (ln): -1.41 ± 0.18

## AGAUAGCAAUAUUACGUCAA
30 °C
  self-splicing fitness (ln): -1.15 ± 0.09
37 °C
  self-splicing fitness (ln): -1.03 ± 0.1

## AGAUAGCAAUAUUACGUCGG
30 °C
  self-splicing fitness (ln): -1.52 ± 0.14
37 °C
  self-splicing fitness (ln): -1.26 ± 0.16

## AGAUAGCAAUAUUACGUGAG
30 °C
  self-splicing fitness (ln): -1.89 ± 0.072
37 °C
  self-splicing fitness (ln): -0.685 ± 0.08

## AGAUAGCAAUAUUACGUGGA
30 °C
  self-splicing fitness (ln): -3.21 ± 0.25
37 °C
  self-splicing fitness (ln): -2.37 ± 0.28

## AGAUAGCAAUAUUACGUGUG
30 °C
  self-splicing fitness (ln): -2.48 ± 0.097
37 °C
  self-splicing fitness (ln): -0.626 ± 0.098

## AGCAAGCAAUAUUACGAAGU
30 °C
  self-splicing fitness (ln): -3.42 ± 0.27
37 °C
  self-splicing fitness (ln): -1.58 ± 0.25

## AGCAAGCAAUAUUACGACAA
30 °C
  self-splicing fitness (ln): -1.54 ± 0.15
37 °C
  self-splicing fitness (ln): -0.436 ± 0.14

## AGCAAGCAAUAUUACGACAG
30 °C
  self-splicing fitness (ln): -2.65 ± 0.14
37 °C
  self-splicing fitness (ln): -1.45 ± 0.15

## AGCAAGCAAUAUUACGCCAU
30 °C
  self-splicing fitness (ln): -3.14 ± 0.18
37 °C
  self-splicing fitness (ln): -1.63 ± 0.13

## AGCAAGCAAUAUUACGCCCC
30 °C
  self-splicing fitness (ln): 0.415 ± 0.15
37 °C
  self-splicing fitness (ln): -0.728 ± 0.18

## AGCAAGCAAUAUUACGCUCC
30 °C
  self-splicing fitness (ln): -3.78 ± 0.4
37 °C
  self-splicing fitness (ln): -1.58 ± 0.39
